Experimental data: publication PMC3467265

Biological target: Cryptosporidium parvum pyruvate kinase (Cryptosporidium parvum)
Assay: SEC; analytical Superdex 200 10/30, partially purified CpPyK, elution compared with catalase (Mr 232 kDa) run separately; fractions checked by SDS-PAGE

## Cryptosporidium parvum pyruvate kinase (enzyme)
  stoichiometry N: 4
